The text below walks through data of patent US20050282739A1.

Square brackets hold non-standard residues; d marks the D form. Ends that are not written are not given here. Nle = CCCC[C@H](N)C(=O)O

The target in experiment [1] is melanocortin-1 receptor (MC1-R) of B-16 mouse melanoma cells (mouse) (UniProt Q01727). In words: 125I-NDP-α-MSH competition, B-16 membranes.
Experiment [2] addresses human melanocortin-4 receptor (hMC4-R) (human) (UniProt P32245). As to the kind of experiment: 125I-NDP-α-MSH competition, hMC4-R membranes.
Experiment [3] has as its target human melanocortin-3 receptor (hMC3-R) (human) (UniProt P41968). In words: 125I-NDP-α-MSH competition, hMC3-R membranes.
Experiment [4] has as its target human melanocortin-5 receptor (hMC5-R) (human) (UniProt P33032). In words: 125I-NDP-α-MSH competition, hMC5-R membranes.

Chain of human melanocortin-4 receptor (hMC4-R) (human) (P32245 whole entry): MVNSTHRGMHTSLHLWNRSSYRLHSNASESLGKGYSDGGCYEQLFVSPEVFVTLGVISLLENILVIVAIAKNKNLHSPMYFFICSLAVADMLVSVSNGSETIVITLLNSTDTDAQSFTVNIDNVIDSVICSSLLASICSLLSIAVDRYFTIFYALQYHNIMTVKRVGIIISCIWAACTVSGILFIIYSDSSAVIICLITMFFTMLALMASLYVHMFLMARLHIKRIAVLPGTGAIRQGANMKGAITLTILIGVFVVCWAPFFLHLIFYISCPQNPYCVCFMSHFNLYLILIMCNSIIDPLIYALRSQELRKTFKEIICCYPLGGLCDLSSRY
Chain of melanocortin-1 receptor (MC1-R) of B-16 mouse melanoma cells (mouse) (Q01727 whole entry): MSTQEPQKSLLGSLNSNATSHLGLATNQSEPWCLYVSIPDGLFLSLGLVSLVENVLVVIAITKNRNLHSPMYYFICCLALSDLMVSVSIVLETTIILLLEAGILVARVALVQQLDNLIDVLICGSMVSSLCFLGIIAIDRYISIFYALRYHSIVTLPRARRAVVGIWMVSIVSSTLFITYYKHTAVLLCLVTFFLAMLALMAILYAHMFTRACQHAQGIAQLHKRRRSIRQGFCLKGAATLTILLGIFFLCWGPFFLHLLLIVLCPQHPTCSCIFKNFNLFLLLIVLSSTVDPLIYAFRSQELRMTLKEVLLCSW
Chain of human melanocortin-3 receptor (hMC3-R) (human) (P41968 whole entry): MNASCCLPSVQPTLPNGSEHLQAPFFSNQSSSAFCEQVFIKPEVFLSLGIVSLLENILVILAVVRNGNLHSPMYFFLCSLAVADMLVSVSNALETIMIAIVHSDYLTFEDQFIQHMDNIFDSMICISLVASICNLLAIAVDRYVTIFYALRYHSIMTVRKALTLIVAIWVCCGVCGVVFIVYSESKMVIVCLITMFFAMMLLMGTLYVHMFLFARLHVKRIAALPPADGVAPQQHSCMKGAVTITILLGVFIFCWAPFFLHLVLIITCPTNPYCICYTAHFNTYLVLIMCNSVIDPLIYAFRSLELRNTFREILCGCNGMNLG
Chain of human melanocortin-5 receptor (hMC5-R) (human) (P33032 whole entry): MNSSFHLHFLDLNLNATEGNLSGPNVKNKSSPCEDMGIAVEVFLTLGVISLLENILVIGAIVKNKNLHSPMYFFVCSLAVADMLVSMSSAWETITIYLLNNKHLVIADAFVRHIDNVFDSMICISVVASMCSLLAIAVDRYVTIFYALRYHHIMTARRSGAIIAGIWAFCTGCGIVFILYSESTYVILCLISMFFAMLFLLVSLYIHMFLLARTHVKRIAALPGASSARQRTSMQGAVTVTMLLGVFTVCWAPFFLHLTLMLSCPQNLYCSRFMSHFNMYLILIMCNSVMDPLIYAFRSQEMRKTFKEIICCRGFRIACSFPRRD

B1: metallopeptide 4-7 (peptide)
peptide: YV[Nle]GHCFRWDRF-NH2
modifications: also: oxorhenium(V) N3S1 chelate: C6 SG + backbone N of G4, H5, C6, bridge at 6 via Re(V)=O, other end not in the chain
By % Inhibition is commonly meant the change of the read-out against control, counted positive when it falls. Consider B1, for which the % Inhibition at 1 µM in experiment [1] and in experiment [2] was 4% in each case.

B2: metallopeptide 1-2 (peptide)
peptide: Ac-SYS[Nle]EHFRWGKGCV-NH2
modifications: also: oxorhenium(V) N3S1 chelate at Cys13
Consider B2, for which the % Inhibition at 1 µM in experiment [3] was 6%.

B3: metallopeptide 4-9 (peptide)
peptide: YV[Nle]CGHFRWDRF-NH2
modifications: also: oxorhenium(V) N3S1 chelate: C4 SG + backbone N of V2, X3, C4, bridge at 4 via Re(V)=O, other end not in the chain
B3: the % Inhibition at 1 µM was 1% in experiment [1] and 4% in experiment [2].

B4: metallopeptide 2-11 (peptide)
peptide: Ac-SYS[dC][Nle]EHFRWGKPV-NH2
modifications: also: oxorhenium(V) N3S1 chelate at D-Cys4
For the molecule B4, the % Inhibition at 1 µM in experiment [3] was determined as 5%.

B5: metallopeptide 1-9 (peptide)
peptide: Ac-SYS[Nle]ECHFRWGKPV-NH2
modifications: also: oxorhenium(V) N3S1 chelate at Cys6
As for B5, the % Inhibition at 1 µM in experiment [2] was found to be 3%.

B6: metallopeptide 1-10 (peptide)
peptide: Ac-SYS[Nle]CEHFRWGKPV-NH2
modifications: also: oxorhenium(V) N3S1 chelate at Cys5
As for B6, in experiment [2], the % Inhibition at 1 µM amounted to 7%.

B7: metallopeptide 1-4 (peptide)
peptide: Ac-SYS[Nle]EHFRWGCKPV-NH2
modifications: also: oxorhenium(V) N3S1 chelate at Cys11
Turning to B7, the % Inhibition at 1 µM in experiment [4] stood at 6%.

B8: metallopeptide 4-6 (peptide)
peptide: YV[Nle]GHFCRWDRF-NH2
modifications: also: oxorhenium(V) N3S1 chelate: C7 SG + backbone N of H5, F6, C7, bridge at 7 via Re(V)=O, other end not in the chain
Take B8: in experiment [1], the % Inhibition at 1 µM is -8%.
